Tests used:
[1] = system: RccR-His (Pseudomonas fluorescens SBW25); assay: DNase I footprinting; details: full protection concentration, SPR: 10 mM Hepes pH 7.4, 300 mM NaCl, 3 mM EDTA, 0.05% Tween20, 25 C, DNase I footprint: 10 mM Tris-HCl pH 8.0, 50 mM NaCl, 10 mM KCl, 5 mM MgCl2, 1 mM DTT …
RccR (RccR-His) = molecular target: T1, RccR (RccR-His) (Pseudomonas paralactis, UniProt A0A0R3AJU3); assay: SPR (ReDCaT, Biacore T200), change of RccR binding to immobilised DNA; details: effector; lowers binding to aceE and rccR sites, raises binding to aceA 28 bp site; 0.5 uM RccR-His, 0-1000 uM ligand, 10 mM Hepes pH 7.4, 300 mM NaCl, 3 mM EDTA, 25 C
T1 construct: gene hexR; full gene in pET42b, E. coli BL21(DE3) pLysS; C-terminal His tag kept; nickel and heparin columns
T1 sequence (A0A0R3AJU3 1-288): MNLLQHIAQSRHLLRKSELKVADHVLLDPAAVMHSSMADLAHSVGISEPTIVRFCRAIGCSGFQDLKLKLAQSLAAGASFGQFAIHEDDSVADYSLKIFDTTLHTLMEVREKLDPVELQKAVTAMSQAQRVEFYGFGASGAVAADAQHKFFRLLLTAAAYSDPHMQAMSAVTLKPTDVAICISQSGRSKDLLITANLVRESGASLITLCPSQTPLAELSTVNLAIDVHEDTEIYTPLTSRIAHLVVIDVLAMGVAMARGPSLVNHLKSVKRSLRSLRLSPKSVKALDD

Molecule: rccR promoter DNase I probe
- binding signal [1]: 20 nM

Molecule: O=C(O)C(=O)C[C@H](O)[C@H](O)COP(=O)(O)O [KDPG, 2-keto-3-deoxy-6-phosphogluconate]
- %Rmax (RccR (RccR-His)): KDPG addition decreased the affinity of RccR-His for both aceE and rccR consensus sequences

Molecule: aceA promoter DNase I probe
- binding signal ([1]; lower affinity than aceE and rccR): 80 nM

Molecule: aceE promoter DNase I probe
- binding signal ([1]; two sites): 10 nM
